Reference: the supplement of paper PMC9876800

Tested on: peptide library, one residue held at a place counted from the S/T acceptor
Test: relative phosphorylation of the sub-library (ratio to the mean residue at this position); higher = residue favoured
Conditions: human
Method in brief: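 Purified recombinant kinases were reacted in 384-well plates with biotinylated degenerate peptide sub-libraries, each having one residue fixed at one position around a central Ser/Thr. The reaction mix contained 50 μM peptide plus 50 μM ATP spiked with γ-32P-ATP and ran for 90 min under kinase-specific conditions. Relative sub-library phosphorylation, taken from densitometry of phosphorimaged streptavidin membrane spots, is a ratio to the mean residue at that position.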

RPS6KA2, construct: Full length, sequence (Q15349 whole entry, looked up): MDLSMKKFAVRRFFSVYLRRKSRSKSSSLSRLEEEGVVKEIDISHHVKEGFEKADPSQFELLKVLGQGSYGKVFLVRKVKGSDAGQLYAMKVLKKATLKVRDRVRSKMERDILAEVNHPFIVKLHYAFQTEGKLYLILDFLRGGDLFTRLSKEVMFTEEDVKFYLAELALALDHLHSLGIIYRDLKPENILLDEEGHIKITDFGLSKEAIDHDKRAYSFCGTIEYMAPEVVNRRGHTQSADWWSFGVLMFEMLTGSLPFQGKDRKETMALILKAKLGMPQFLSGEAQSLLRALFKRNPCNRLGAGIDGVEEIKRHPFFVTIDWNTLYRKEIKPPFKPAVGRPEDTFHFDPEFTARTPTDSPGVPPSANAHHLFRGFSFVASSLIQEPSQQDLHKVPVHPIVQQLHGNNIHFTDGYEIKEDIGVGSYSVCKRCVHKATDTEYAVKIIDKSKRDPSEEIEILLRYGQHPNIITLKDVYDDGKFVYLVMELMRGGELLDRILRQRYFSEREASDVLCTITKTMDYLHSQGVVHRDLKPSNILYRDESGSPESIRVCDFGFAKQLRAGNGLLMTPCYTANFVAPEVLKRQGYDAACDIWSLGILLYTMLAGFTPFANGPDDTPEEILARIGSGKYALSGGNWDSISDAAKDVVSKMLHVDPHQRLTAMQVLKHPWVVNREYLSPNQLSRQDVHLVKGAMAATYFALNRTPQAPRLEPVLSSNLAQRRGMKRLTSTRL
OXSR1, construct: Full length, sequence (O95747 whole entry, looked up): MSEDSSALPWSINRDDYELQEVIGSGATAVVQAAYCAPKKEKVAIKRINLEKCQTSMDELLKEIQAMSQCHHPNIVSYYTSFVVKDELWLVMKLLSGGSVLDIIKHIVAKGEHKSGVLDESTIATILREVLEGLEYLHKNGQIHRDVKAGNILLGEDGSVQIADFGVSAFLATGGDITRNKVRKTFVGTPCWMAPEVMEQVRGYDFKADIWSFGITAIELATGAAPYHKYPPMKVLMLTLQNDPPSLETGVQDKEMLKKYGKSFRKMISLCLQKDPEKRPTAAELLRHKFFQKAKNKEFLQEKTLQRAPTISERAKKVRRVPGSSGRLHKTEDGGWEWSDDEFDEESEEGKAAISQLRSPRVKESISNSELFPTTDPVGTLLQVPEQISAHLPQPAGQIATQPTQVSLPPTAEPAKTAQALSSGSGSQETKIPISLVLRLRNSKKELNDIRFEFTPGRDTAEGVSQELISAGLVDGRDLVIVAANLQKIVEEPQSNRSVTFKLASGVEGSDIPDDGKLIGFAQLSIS
PLK4, construct: aa1-836, sequence (O00444 1-836, looked up): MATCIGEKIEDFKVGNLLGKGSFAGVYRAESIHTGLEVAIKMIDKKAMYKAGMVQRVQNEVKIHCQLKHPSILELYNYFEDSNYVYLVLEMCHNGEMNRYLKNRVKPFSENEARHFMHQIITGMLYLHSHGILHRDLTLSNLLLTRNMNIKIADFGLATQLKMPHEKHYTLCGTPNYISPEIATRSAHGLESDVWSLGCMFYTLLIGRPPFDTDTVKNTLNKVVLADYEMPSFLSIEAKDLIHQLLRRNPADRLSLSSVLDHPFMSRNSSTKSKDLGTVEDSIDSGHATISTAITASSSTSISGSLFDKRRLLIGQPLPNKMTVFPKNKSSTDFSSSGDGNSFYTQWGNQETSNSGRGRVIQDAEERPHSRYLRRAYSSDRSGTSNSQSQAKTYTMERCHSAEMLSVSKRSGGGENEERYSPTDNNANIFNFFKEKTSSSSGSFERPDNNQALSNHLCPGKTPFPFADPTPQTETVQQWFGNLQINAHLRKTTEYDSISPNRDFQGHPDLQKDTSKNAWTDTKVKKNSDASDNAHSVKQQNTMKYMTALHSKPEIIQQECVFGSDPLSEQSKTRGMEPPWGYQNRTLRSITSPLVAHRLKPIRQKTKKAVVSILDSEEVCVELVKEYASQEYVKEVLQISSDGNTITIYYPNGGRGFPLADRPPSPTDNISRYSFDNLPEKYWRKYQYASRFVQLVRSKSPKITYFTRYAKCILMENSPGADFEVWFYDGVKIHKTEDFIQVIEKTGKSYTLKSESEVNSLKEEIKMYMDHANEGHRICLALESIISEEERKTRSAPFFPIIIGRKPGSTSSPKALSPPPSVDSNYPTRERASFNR

OXSR1, construct: Full length (from UniProt O95747)
relative phosphorylation
Conditions | at +1 | at +2 | at +3 | at +4 | at -1 | at -2 | at -3 | at -4 | at -5
A fixed | 0.587 | 0.646 | 1.07 | 1 | 0.862 | 0.695 | 0.845 | 1.05 | 1.23
D fixed | 0.346 | 0.325 | 0.493 | 0.683 | 1.83 | 1.34 | 1.26 | 1.9 | 1.83
E fixed | 0.382 | 0.249 | 0.487 | 0.666 | 1.19 | 1.31 | 1.27 | 1.8 | 1.52
F fixed | 1.08 | 0.495 | 0.574 | 0.702 | 0.643 | 0.693 | 0.48 | 0.722 | 0.76
G fixed | 0.509 | 1.09 | 1.42 | 1.37 | 0.801 | 1.31 | 1.17 | 1.41 | 1.4
H fixed | 1.21 | 3.55 | 1.17 | 1.07 | 1.67 | 1.43 | 1.57 | 1 | 0.976
I fixed | 1.69 | 0.541 | 0.443 | 0.596 | 0.447 | 0.333 | 0.36 | 0.329 | 0.386
K fixed | 0.838 | 1.25 | 2.23 | 1.93 | 0.975 | 0.584 | 0.783 | 0.964 | 1.06
L fixed | 1.14 | 0.459 | 0.531 | 0.634 | 0.931 | 0.432 | 0.384 | 0.416 | 0.519
M fixed | 1.36 | 0.76 | 0.613 | 0.78 | 0.968 | 0.531 | 0.51 | 0.633 | 0.581
N fixed | 0.689 | 1.18 | 1.1 | 0.947 | 1.64 | 1.69 | 2.04 | 1.14 | 0.96
P fixed | 0.351 | 0.677 | 1.47 | 1.29 | 0.494 | 0.673 | 1.3 | 1.22 | 1.4
Q fixed | 1.06 | 1 | 0.907 | 1.06 | 0.987 | 1.61 | 1.18 | 1.09 | 0.757
R fixed | 1.04 | 2.08 | 2.47 | 1.7 | 1.33 | 0.677 | 0.846 | 0.994 | 1.12
V fixed | 1.53 | 0.678 | 0.556 | 0.63 | 0.446 | 0.378 | 0.552 | 0.535 | 0.549
W fixed | 1.99 | 0.782 | 0.72 | 1.09 | 0.706 | 0.84 | 0.663 | 0.864 | 0.852
Y fixed | 1.2 | 1.23 | 0.739 | 0.856 | 1.09 | 2.46 | 1.79 | 0.937 | 1.11
pThr fixed | 0.911 | 0.562 | 0.699 | 0.507 | 0.94 | 1.06 | 1.43 | 1.49 | 1.46
pTyr fixed | 0.769 | 0.428 | 0.728 | 0.82 | 2.18 | 1.52 | 1.41 | 1.53 | 1.82

PLK4, construct: aa1-836 (from UniProt O00444)
relative phosphorylation
Conditions | at +1 | at +2 | at +3 | at +4 | at -1 | at -2 | at -3 | at -4 | at -5
A fixed | 0.459 | 0.471 | 0.813 | 1.24 | 0.953 | 0.708 | 1.03 | 1.24 | 1.26
D fixed | 0.141 | 0.195 | 0.641 | 0.629 | 0.452 | 2.77 | 0.913 | 1.08 | 0.912
E fixed | 0.135 | 0.148 | 0.874 | 0.705 | 0.493 | 1.26 | 0.791 | 0.991 | 0.918
F fixed | 3.31 | 2.2 | 1.18 | 0.861 | 0.621 | 0.829 | 0.569 | 0.691 | 0.873
G fixed | 0.61 | 0.24 | 0.821 | 1.4 | 2.08 | 1.35 | 1.25 | 1.42 | 1.43
H fixed | 0.675 | 1.6 | 1.03 | 1.09 | 0.988 | 1.15 | 0.848 | 1.14 | 1.21
I fixed | 1.67 | 1.39 | 1.4 | 1.01 | 0.347 | 0.395 | 0.478 | 0.625 | 0.582
K fixed | 0.413 | 0.219 | 0.704 | 1.05 | 2.14 | 0.712 | 1.07 | 1.04 | 1.28
L fixed | 1.62 | 1.35 | 1.33 | 1.01 | 0.858 | 0.398 | 0.715 | 0.748 | 0.771
M fixed | 2.44 | 0.906 | 1.2 | 1.05 | 1.33 | 0.676 | 0.867 | 0.893 | 0.728
N fixed | 0.409 | 0.294 | 0.58 | 0.829 | 1.09 | 2.41 | 1.97 | 1.54 | 1.28
P fixed | 0.168 | 0.141 | 0.381 | 1.55 | 0.331 | 0.486 | 1.98 | 1.25 | 0.926
Q fixed | 0.58 | 0.252 | 0.785 | 1.01 | 1.27 | 0.778 | 0.96 | 0.956 | 0.825
R fixed | 0.44 | 0.216 | 0.609 | 0.711 | 1.85 | 0.75 | 1.14 | 0.944 | 1.07
V fixed | 1.08 | 1.12 | 1.36 | 0.969 | 0.571 | 0.44 | 1.08 | 0.776 | 0.87
W fixed | 1.47 | 2.81 | 1.84 | 0.991 | 0.672 | 1 | 0.717 | 0.917 | 1.21
Y fixed | 1.38 | 3.44 | 1.44 | 0.889 | 0.955 | 0.881 | 0.627 | 0.746 | 0.848
pThr fixed | 0.54 | 0.446 | 0.572 | 0.592 | 0.571 | 0.796 | 1.08 | 0.931 | 0.889
pTyr fixed | 0.526 | 1.37 | 0.734 | 0.52 | 1.06 | 0.753 | 0.841 | 0.86 | 0.806

RPS6KA2, construct: Full length (from UniProt Q15349)
relative phosphorylation
Conditions | at +1 | at +2 | at +3 | at +4 | at -1 | at -2 | at -3 | at -4 | at -5
A fixed | 0.795 | 1.22 | 1.14 | 1.18 | 0.925 | 0.766 | 0.741 | 1.41 | 1.13
D fixed | 0.457 | 0.669 | 0.976 | 0.77 | 0.569 | 0.763 | 0.455 | 0.572 | 0.435
E fixed | 0.806 | 0.601 | 0.792 | 0.661 | 0.505 | 0.589 | 0.562 | 0.639 | 0.417
F fixed | 1.32 | 0.708 | 0.99 | 0.844 | 0.752 | 0.54 | 0.373 | 0.851 | 0.915
G fixed | 0.658 | 1.24 | 1.21 | 1.22 | 1.21 | 0.914 | 0.583 | 1.12 | 1.1
H fixed | 1.31 | 1.66 | 1.19 | 1.32 | 1.18 | 1.26 | 0.672 | 1.1 | 1.11
I fixed | 1.22 | 0.994 | 0.855 | 0.88 | 0.384 | 0.502 | 0.308 | 0.657 | 0.72
K fixed | 0.972 | 1.04 | 1.03 | 1.22 | 1.5 | 2.21 | 1.47 | 1.58 | 2
L fixed | 0.925 | 0.616 | 1.04 | 0.839 | 0.916 | 1.05 | 0.311 | 0.801 | 0.862
M fixed | 1.09 | 0.742 | 0.912 | 0.887 | 1.12 | 0.761 | 0.449 | 0.916 | 0.715
N fixed | 0.769 | 0.781 | 0.706 | 0.68 | 1.16 | 0.697 | 0.434 | 0.743 | 0.755
P fixed | 0.338 | 0.794 | 1.04 | 1.27 | 1.58 | 0.467 | 0.632 | 0.984 | 0.865
Q fixed | 0.925 | 0.566 | 0.717 | 0.916 | 0.861 | 0.879 | 0.603 | 0.956 | 0.702
R fixed | 0.998 | 1.82 | 1.09 | 0.886 | 1.6 | 4.34 | 8.11 | 2.03 | 3.49
V fixed | 1.75 | 1.11 | 0.92 | 0.819 | 0.683 | 0.35 | 0.365 | 0.786 | 0.713
W fixed | 1.05 | 0.973 | 1.17 | 1.44 | 0.793 | 0.409 | 0.443 | 0.954 | 0.171
Y fixed | 1.61 | 1.47 | 1.23 | 1.16 | 1.26 | 0.503 | 0.49 | 0.894 | 0.903
pThr fixed | 1 | 0.781 | 1.22 | 1.03 | 0.307 | 0.308 | 0.269 | 0.637 | 0.391
pTyr fixed | 1.55 | 1.05 | 1.25 | 0.999 | 0.657 | 0.368 | 0.555 | 0.636 | 0.526

MAP3K3, construct: Full length (from UniProt Q99759)
relative phosphorylation
Conditions | at +1 | at +2 | at +3 | at +4 | at -1 | at -2 | at -3 | at -4 | at -5
A fixed | 0.713 | 0.684 | 0.711 | 0.953 | 0.837 | 0.924 | 0.739 | 0.897 | 0.956
D fixed | 0.304 | 0.643 | 0.767 | 0.758 | 1.28 | 1.65 | 1.39 | 1.38 | 1.12
E fixed | 0.322 | 0.539 | 0.758 | 1.04 | 1.01 | 0.958 | 1.37 | 1.23 | 1.01
F fixed | 1.32 | 0.884 | 1.38 | 0.916 | 0.902 | 1.09 | 0.946 | 0.955 | 1.11
G fixed | 0.603 | 0.488 | 0.904 | 0.904 | 1.25 | 0.969 | 1.33 | 0.913 | 0.916
H fixed | 0.779 | 2.55 | 1.03 | 0.859 | 1.24 | 0.984 | 0.918 | 0.982 | 1.13
I fixed | 1.77 | 0.745 | 1.01 | 0.961 | 0.747 | 1.02 | 0.876 | 0.892 | 0.869
K fixed | 0.516 | 1.42 | 1.19 | 1.7 | 1.18 | 0.591 | 0.998 | 1.1 | 1.15
L fixed | 1.49 | 0.808 | 1.2 | 0.821 | 0.922 | 0.794 | 0.851 | 0.93 | 0.895
M fixed | 1.74 | 1.05 | 1.11 | 0.953 | 0.943 | 1.01 | 0.902 | 1.05 | 0.944
N fixed | 0.48 | 1.03 | 0.992 | 0.962 | 1.3 | 0.932 | 1.04 | 1.01 | 1.03
P fixed | 0.34 | 0.255 | 0.361 | 0.982 | 0.482 | 0.728 | 0.723 | 0.736 | 0.744
Q fixed | 0.686 | 0.898 | 0.75 | 1.07 | 0.834 | 0.838 | 0.77 | 0.741 | 0.842
R fixed | 0.796 | 1.67 | 1.15 | 1.35 | 1.54 | 0.915 | 1.28 | 1.09 | 1.05
V fixed | 1.43 | 0.841 | 0.861 | 0.734 | 0.684 | 1.13 | 0.971 | 0.916 | 0.925
W fixed | 2.59 | 0.994 | 1.57 | 1.02 | 0.849 | 1.15 | 0.981 | 1.07 | 1.21
Y fixed | 1.11 | 1.5 | 1.26 | 1.02 | 1.01 | 1.31 | 0.912 | 1.1 | 1.08
pThr fixed | 1.12 | 1.39 | 0.824 | 1.37 | 1.23 | 2.17 | 2.37 | 1.82 | 2.48
pTyr fixed | 0.626 | 0.691 | 1.06 | 0.783 | 1.56 | 2.52 | 1.7 | 1.02 | 1.63
